According to PMC9278964:
Like-named read-outs stand apart in the source and are kept apart here.

Assays:
[1] = biological target: biotinylated PD-L1 (Homo sapiens (assumed)) (UniProt Q9NZQ7); assay: ELISA
[2] = biological target: biotinylated PD-L1 (Homo sapiens (assumed)) (UniProt Q9NZQ7); assay: ELISA; remark: listed apart in the source

UniProt Q9NZQ7, sequence (Q9NZQ7 19-290): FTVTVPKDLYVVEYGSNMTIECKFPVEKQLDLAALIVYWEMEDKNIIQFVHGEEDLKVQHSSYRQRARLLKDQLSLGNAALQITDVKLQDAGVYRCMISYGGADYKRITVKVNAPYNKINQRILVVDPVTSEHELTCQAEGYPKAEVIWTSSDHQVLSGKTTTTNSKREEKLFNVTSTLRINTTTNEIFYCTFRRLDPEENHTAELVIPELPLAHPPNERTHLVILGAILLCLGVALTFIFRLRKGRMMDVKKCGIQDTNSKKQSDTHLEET

avelumab (antibody)
EC50 [1]: 15 pM
EC50 [2]: 98 pM
